Bridge positions count the residues as written; N and C are the ends. Square brackets hold non-standard residues; d marks the D form. Ends that are not written are not given here. * marks the point of attachment. 5‑TAMRA = CN(C)c1ccc2c(-c3ccc(C(=O)*)cc3C(=O)[O-])c3ccc(N(C)C)cc3[o+]c2c1; n3 = azido unnatural amino acid, 3 CH2 in side chain; Lys(N3) = [N-]=[N+]=NCCCC[C@H](N)C(=O)O; Dap(N3) = [N-]=[N+]=NC[C@H](N)C(=O)O; Aha = [N-]=[N+]=NCC[C@H](N)C(=O)O; m3c = not defined here; m3 = not defined here; m4 = not defined here; m5 = not defined here; Ahx = NCCCCCC(=O)O

The text below walks through data of paper PMC5358875 (Journal of the American Chemical Society, 2017).

To fix the notation:
B1: cp5n4m5c (peptide)
chain: Ac-RE[Lys(N3)]GDGE[Lys(N3)]
modifications: bridge 3-8; not fully specified (bridges)
B2: cp2n4m5 (peptide)
chain: Ac-R[Lys(N3)]AGDG[Lys(N3)]E
modifications: bridge 2-7; not fully specified (bridges)
B3: cp4n4m5c (peptide)
chain: Ac-RE[Lys(N3)]GDG[Lys(N3)]E
modifications: bridge 3-7; not fully specified (bridges)
B4: cp2n4m7N (peptide)
chain: Ac-R[Lys(N3)]AGDG[Lys(N3)]E
modifications: bridge 2-7; not fully specified (bridges)
B5: cp3n4m5 (peptide)
chain: Ac-R[Lys(N3)]AGDGE[Lys(N3)]
modifications: bridge 2-8; not fully specified (bridges)
B6: cp4n4m7N (peptide)
chain: Ac-RE[Lys(N3)]GDG[Lys(N3)]E
modifications: bridge 3-7; not fully specified (bridges)
B7: cp3n4m7N (peptide)
chain: Ac-R[Lys(N3)]AGDGE[Lys(N3)]
modifications: bridge 2-8; not fully specified (bridges)
B8: cp2n3m7N (peptide)
chain: Ac-R[n3]AGDG[n3]E
modifications: bridge 2-7; not fully specified (bridges)
B9: cp4n4m5 (peptide)
chain: Ac-RE[Lys(N3)]GDG[Lys(N3)]E-NH2
modifications: bridge 3-7; not fully specified (bridges)
B10: cp2n2m7N (peptide)
chain: Ac-R[Aha]AGDG[Aha]E
modifications: bridge 2-7; not fully specified (bridges)
B11: cp5n4m5 (peptide)
chain: Ac-RE[Lys(N3)]GDGE[Lys(N3)]
modifications: bridge 3-8; not fully specified (bridges)
B12: T-cp4n21m4 (peptide)
chain: {5‑TAMRA-Ahx}-RE[Aha]GDG[Dap(N3)]E
modifications: triazole 3-7 via m4; reading uncertain
B13: T-cp4n3m3c (peptide)
chain: {5‑TAMRA-Ahx}-RE[n3]GDG[n3]E
modifications: bridge 3-7; not fully specified (bridges)
B14: T-cp4n32m4 (peptide)
chain: {5‑TAMRA-Ahx}-RE[n3]GDG[Aha]E
modifications: triazole 3-7 via m4; reading uncertain
B15: T-cp4n21m3 (peptide)
chain: {5‑TAMRA-Ahx}-RE[Aha]GDG[Dap(N3)]E
modifications: triazole 3-7 via m3; reading uncertain
B16: T-cp4n12m4 (peptide)
chain: {5‑TAMRA-Ahx}-RE[Dap(N3)]GDG[Aha]E
modifications: triazole 3-7 via m4; reading uncertain
B17: T-cp4n1m4 (peptide)
chain: {5‑TAMRA-Ahx}-RE[Dap(N3)]GDG[Dap(N3)]E
modifications: triazole 3-7 via m4; reading uncertain
B18: T-cp4n23m5 (peptide)
chain: {5‑TAMRA-Ahx}-RE[Aha]GDG[n3]E
modifications: triazole 3-7 via m5; reading uncertain
B19: T-cp4n32m3 (peptide)
chain: {5‑TAMRA-Ahx}-RE[n3]GDG[Aha]E
modifications: triazole 3-7 via m3; reading uncertain
B20: T-cp4n23m4 (peptide)
chain: {5‑TAMRA-Ahx}-RE[Aha]GDG[n3]E
modifications: triazole 3-7 via m4; reading uncertain
B21: T-cp4n21m5 (peptide)
chain: {5‑TAMRA-Ahx}-RE[Aha]GDG[Dap(N3)]E
modifications: triazole 3-7 via m5; reading uncertain
B22: T-cp4n12m5 (peptide)
chain: {5‑TAMRA-Ahx}-RE[Dap(N3)]GDG[Aha]E
modifications: triazole 3-7 via m5; reading uncertain
B23: T-cp4n12m3 (peptide)
chain: {5‑TAMRA-Ahx}-RE[Dap(N3)]GDG[Aha]E
modifications: triazole 3-7 via m3; reading uncertain
B24: T-cp4n23m3c (peptide)
chain: {5‑TAMRA-Ahx}-RE[Aha]GDG[n3]E
modifications: triazole 3-7 via m3c; reading uncertain
B25: T-cp4n32m3c (peptide)
chain: {5‑TAMRA-Ahx}-RE[n3]GDG[Aha]E
modifications: triazole 3-7 via m3c; reading uncertain
B26: T-cp4n32m5 (peptide)
chain: {5‑TAMRA-Ahx}-RE[n3]GDG[Aha]E
modifications: triazole 3-7 via m5; reading uncertain

The first experiment addresses T1, human tankyrase 2 ankyrin repeat cluster 4 (TNKS2 ARC4, residues 488-649) (human, UniProt Q9H2K2 488-649).
T1 sequence (looked up): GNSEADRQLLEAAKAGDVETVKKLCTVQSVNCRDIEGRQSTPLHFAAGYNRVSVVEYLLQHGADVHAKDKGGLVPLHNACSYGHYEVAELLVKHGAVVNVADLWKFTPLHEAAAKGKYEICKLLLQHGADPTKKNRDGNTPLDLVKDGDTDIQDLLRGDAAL
Put plainly: fluorescence polarisation; competition: unlabeled peptide or Axin1 fragment diluted 2-fold serially against TAMRA-labeled pep1 (20 nM) with TNKS2 ARC4 (3 uM); PBS, 0.05% Tween 20; 30 min, 25 C. Conditions: both partners purified. On the technique in general: Polarisation of emitted light reports the rotation of a fluorescent probe.
B1 had a Kd of 13.9 ± 2.1 µM.
B2 displayed a Kd of 14.1 ± 4 µM.
B3 had a Kd of 16.7 ± 2 µM.
For B4, the dissociation constant (Kd) was determined as 32.4 ± 1.7 µM.
In turn, B5 showed an equilibrium dissociation constant (Kd) of 23.4 ± 4.2 µM.
B6 came in with a Kd of 6.5 ± 0.2 µM.
The molecule B7 showed a Kd of 35.5 ± 2.5 µM.
Consider B8, for which the Kd was 14.7 ± 0.8 µM.
On the same count and under the same terms, in the case of B9 it was 2.8 ± 0.1 µM; in that of B10, 53.3 ± 8.3 µM.
As to B11, binding was put at a Kd of 7.9 ± 1.2 µM.

A further experiment deals with T1, human tankyrase 2 ankyrin repeat …. The experiment in a line: fluorescence polarisation; direct: TNKS2 ARC4 or TNKS1 ARC2-3 diluted 2-fold serially (40-0 uM, 50 uL) and mixed with TAMRA-labeled peptide (20 nM, 50 uL); 50 mM HEPES pH 7.5, 300 mM NaCl, 2 mM DTT, 0.05% Tween 20; 30 min, 25 C. The conditions noted are these: both partners purified.
B12: binding was put at a Kd of 5.8 ± 0.2 µM.
Molecule B13 showed an equilibrium dissociation constant (Kd) of 15.4 ± 0.6 µM.
In turn, B14 registered a dissociation constant Kd of 11.1 ± 0.9 µM.
On the same count and under the same terms, in the case of B15 it was 22.8 ± 1.3 µM.
With B16, the dissociation constant (Kd) worked out at 8.9 ± 0.3 µM.
Still for that read-out and setting: in the case of B17 it was 61.8 ± 33.9 µM; in that of B18, 4.3 ± 0.2 µM; in that of B19, 6.1 ± 0.2 µM.
B20: the affinity, expressed as Kd, was 1.7 ± 0.05 µM.
Still for that read-out and setting: the result for B21 reads 13.6 ± 1.1 µM; that for B22, 7.7 ± 0.3 µM; that for B23, 12.5 ± 0.5 µM.
Still for that read-out and setting: the result for B24 reads 15.5 ± 0.6 µM.
In turn, B25 gave a Kd of 15.3 ± 0.6 µM.
The molecule B26 came in with a Kd of 4.2 ± 0.12 µM.

A word on the Kd: it is a measure of binding affinity in units of concentration. Read a high Kd as lower affinity.
